Assay results from patent US20170327598A1 (published 2017).

Legend:
STAT 3 protein = STAT 3 protein (UniProt P40763 1-770, limits assumed); experiment: sandwich ELISA, STAT protein coated at 0.5 µg/mL
STAT 5a protein = target: T1, STAT 5a protein (UniProt P42229 1-794, limits assumed); experiment: sandwich ELISA, STAT protein coated at 0.5 µg/mL
T1 sequence (looked up): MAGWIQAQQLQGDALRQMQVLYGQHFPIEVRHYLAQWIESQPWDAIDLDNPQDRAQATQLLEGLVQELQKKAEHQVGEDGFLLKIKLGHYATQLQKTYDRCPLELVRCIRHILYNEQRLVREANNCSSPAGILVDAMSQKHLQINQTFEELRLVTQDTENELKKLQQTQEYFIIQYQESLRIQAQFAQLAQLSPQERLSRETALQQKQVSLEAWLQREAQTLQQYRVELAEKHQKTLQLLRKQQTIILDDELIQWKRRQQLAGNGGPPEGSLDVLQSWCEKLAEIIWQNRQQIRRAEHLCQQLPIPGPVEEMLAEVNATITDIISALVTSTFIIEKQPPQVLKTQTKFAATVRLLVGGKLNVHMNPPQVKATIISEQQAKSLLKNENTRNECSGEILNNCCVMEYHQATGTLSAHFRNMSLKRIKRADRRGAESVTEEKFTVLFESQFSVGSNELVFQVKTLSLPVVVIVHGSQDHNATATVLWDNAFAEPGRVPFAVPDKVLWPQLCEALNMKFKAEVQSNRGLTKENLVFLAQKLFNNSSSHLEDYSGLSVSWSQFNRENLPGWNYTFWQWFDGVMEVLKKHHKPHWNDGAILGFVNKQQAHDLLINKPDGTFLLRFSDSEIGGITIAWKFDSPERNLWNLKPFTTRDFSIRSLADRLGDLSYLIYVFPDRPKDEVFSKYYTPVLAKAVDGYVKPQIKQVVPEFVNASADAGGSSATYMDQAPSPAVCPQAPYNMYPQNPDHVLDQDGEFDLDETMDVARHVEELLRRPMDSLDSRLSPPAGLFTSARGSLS

B1: anti-STAT3 VHH13 (SEQ ID NO:3) sdAb (VHH)
VHH: HVQLVESGGGSVQAGGSLRLSCAASGANGGRSCMGWFRQVPGKEREGVSGISTGGLITYYADSVKGRFTISQDNTKNTLYLQMNSLKPEDTAMYYCATSRFDCYRGSWFNRYMYNSWGQGTQVTVSS
- Mean OD450 (STAT 3 protein): 0.063 OD450
- Mean OD450 (STAT 5a protein): 0.107 OD450
